Test results published in US11142548B2, “Agents that activate CD47 and their use in the treatment of inflammation” (SORBONNE UNIVERSITE, priority 2016, dated 2021).

Assays:
[1] = molecular target: T1, HTRA1 (Homo sapiens, UniProt Q92743); test: HTRA1 cleavage sites of TSP1 by LC-MS/MS; format: biochemical; conditions: post-digestion fragments
T1 construct: purchased R & D
Description: Proteins were submitted to reduction by incubation with 5 mM dithiotreitol in 50 mM ammonium bicarbonate (AmBic) for 30 min at 37° C., then alkylation with 15 mM iodoacetamide in 50 mM AmBic for 30 min, RT. Tryptic digestion was performed with a protein/enzyme ratio of 25/1 at 37° C. overnight in 50 mM AmBic.
Peptide mixtures were supplemented with formic acid to a final concentration of 0.1% and analyzed on a U3000 nanoLC (Thermo) coupled to an HCTultra ion trap (Bruker). Peptides were concentrated and desalted for 5 min on a precolumm RP-C18 (5 mm, 300 μm i.d., 100 Å, Thermo) with a mobile phase A (2% ACN/0.1% formic acid) at a flow rate of 20 μL/min then separated on an analytical column RP-C18 (15 cm, 75 μm i.d., 100 Å, Dionex) at a flow rate of 300 nL/min. Elution gradient was run from 2% to 10% of solvent B (95% ACN/0.1% formic acid) in 10 min then 10% to 35% B in 60 min and 35% to 50% B in 10 min. The ion trap was used in the positive mode with the selection of 8 precursors from each MS spectrum for fragmentation by collision induced dissociation (CID). […]
Tryptic peptides were also analyzed by MALDI-TOF MS on an Autoflex speed (Bruker) in positive reflectron mode in the mass range 700-4000 m/z using α-Cyano-4-hydroxycinnamic acid as the matrix (0.9 mg/mL CHCA in 85% CAN, 0.1% TFA, 10 mM ammonium phosphate). […]

[2] = tested on: subretinal IBA-1+ mononuclear monocytes; test: Laser-induced subretinal inflammation in wildtype- and Tsp1-/- mice; format: in vivo, mouse; conditions: wildtype- and Tsp1-/- mice, intravitreal at d3, d7; FIG. 3 statistics given for Tsp1-/- mice vs PBS
Description: Laser-coagulations were performed with a 532 nm ophtalmological laser mounted on an operating microscope (Vitra Laser, 532 nm, 450 mW, 50 ms, and 250 μm): Intravitreal injections of 2 μl of HTRA1 and/or TSP1 were performed using glass capillaries (Eppendorf) and a micro injector. The 2 μl injection solution contained 50 μg/ml TSP1 and HTRA1, corresponding to an intraocular concentration of 5 μg/ml of each protein assuming their dilution by approximately 1/10th in the intra-ocular volume. […] A volume of 2 μl of a 100 μM solution of either PBS, recombinant TSP1 (10 μg/ml), the 4NGG control peptide or the CD47-activating peptide PKT16 (200 μM) was injected at day 4 (when MP infiltration is maximal) and day 7 after the injury and evaluated subretinal inflammation on flatmounted RPE/choroidal flatmounts at day 10.
Eyes were enucleated, fixed in 4% PFA 30 minutes and sectioned at the limbus; the cornea and lens were discarded. […] Choroids and retinas were flatmounted and viewed with a fluorescence microscope DM5500B (Leica). IBA-1+ cells were counted on whole RPE/choroidal flatmounts and on the outer segment side of the retina. […]

[3] = molecular target: CD47 (Homo sapiens, UniProt Q08722); conditions: comparison in words, no test described; cited from earlier work
Chain of CD47 (Q08722 19-323, species assumed): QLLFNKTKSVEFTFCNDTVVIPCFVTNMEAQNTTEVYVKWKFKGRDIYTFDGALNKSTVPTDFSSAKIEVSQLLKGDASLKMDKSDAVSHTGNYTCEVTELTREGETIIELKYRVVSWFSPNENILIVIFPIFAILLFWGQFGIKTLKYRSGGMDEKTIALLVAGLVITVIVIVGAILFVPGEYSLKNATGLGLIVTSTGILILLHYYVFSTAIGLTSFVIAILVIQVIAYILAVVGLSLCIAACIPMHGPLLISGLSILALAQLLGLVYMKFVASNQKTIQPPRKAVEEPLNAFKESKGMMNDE

T1 sequence (Q92743 23-480): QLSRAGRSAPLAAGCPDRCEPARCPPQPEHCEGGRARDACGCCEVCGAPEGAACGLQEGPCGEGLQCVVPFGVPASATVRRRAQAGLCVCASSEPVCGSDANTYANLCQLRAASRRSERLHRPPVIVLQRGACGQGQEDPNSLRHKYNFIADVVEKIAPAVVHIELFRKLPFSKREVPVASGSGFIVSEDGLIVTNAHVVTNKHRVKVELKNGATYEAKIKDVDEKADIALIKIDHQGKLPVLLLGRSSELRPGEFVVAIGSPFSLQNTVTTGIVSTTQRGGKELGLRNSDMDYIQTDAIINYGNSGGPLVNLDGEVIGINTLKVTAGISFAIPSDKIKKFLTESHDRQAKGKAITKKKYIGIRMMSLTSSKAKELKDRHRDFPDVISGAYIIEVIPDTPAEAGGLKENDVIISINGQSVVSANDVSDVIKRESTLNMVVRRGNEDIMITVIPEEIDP

Substance: recombinant TSP1: recombinant human TSP1 (R&D Systems), natural ligand and agonist of CD47
- distinct sites proteolyzed by HTRA1 [1]: 5 sites
- reduction of laser-induced subretinal inflammation [2]: significantly reduces
- half maximal effective concentration (EC50) relative to CD47-activating peptides or TSP2 [3]: much lower
